Results reported in patent US20230340155A1 (published 2023).

The binders below were run against T1, biotinylated Human PD-1/PDCD1 (Acro Biosystems, Cat# PD1-H82E4) (human, UniProt Q15116 25-167, biotinylated) (assay: Fab ELISA, Fab captured by anti-Fd(CH1) antibody, 5 nM biotinylated human PD-1, streptavidin-HRP chemiluminescence).
T1 construct: Bought reagent; whole mature entry named
Experimental: For follow-up screening, plasmid DNA was prepared from overnight culture of the TG-1 Escherichia coli cells and the pIX gene was excised by NheI/SpeI digestion. After ligation, the DNA was transformed into TG-1 cells and grown on LB/Agar plates overnight. The next day, colonies were picked, grown overnight, and the cultures used for (i) colony sequencing of the V- regions, and (ii) induction of Fab production. For Fab production, the overnight culture was diluted 100 folds in new media and grown for 5-6 hours at 37° C. Fab production was induced by the addition of fresh media containing IPTG and the cultures were grown overnight at 30° C. The following day, the cultures were spun down and the supernatants, containing the soluble Fab proteins, were used for Fab ELISA. For the ELISA, the soluble Fab proteins were captured onto plates by a polyclonal anti-Fd(CH1) antibody. After washing and blocking, biotinylated Human PD-1/PDCD1 was added at 5 nM concentration. […] The biotinylated human PD-1 was detected by HRP-conjugated streptavidin with chemiluminescence measured in a plate reader.

T1 sequence (Q15116 25-167 limits assumed): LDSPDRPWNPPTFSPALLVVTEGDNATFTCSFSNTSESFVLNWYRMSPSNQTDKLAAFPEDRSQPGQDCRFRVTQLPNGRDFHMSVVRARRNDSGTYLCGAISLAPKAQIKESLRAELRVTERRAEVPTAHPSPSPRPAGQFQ

fold change in ELISA binding versus the parental Fab | Binder
10 fold | PD1B878 Fab variant with heavy chain PD1H585 (E57Y) (Fab, V domains shown, Soluble Fab of the non-combinatorial CDR scan) VH: QVQLVQSGSELKKPGASVKVSCKASGYTFTDYSMHWVRQAPGQGLEWMGWINIETGYPTYAQGFTGRFVFSLDTSVSTAYLQISSLKAEDTAVYFCARDYYGTYFYAMDYWGQGTLVTVSS VL: EIVLTQSPATLSLSPGERATLSCTASSSVSSSYLHWYQQKPGLAPRLLIYSTSNLASGIPDRFSGSGSGTDYTLTISRLEPEDFAVYYCHQYHRSPLTFGQGTKLEIK
10 fold | PD1B878 Fab variant with heavy chain PD1H587 (E57W) (Fab, V domains shown, Soluble Fab of the non-combinatorial CDR scan) VH: QVQLVQSGSELKKPGASVKVSCKASGYTFTDYSMHWVRQAPGQGLEWMGWINIETGWPTYAQGFTGRFVFSLDTSVSTAYLQISSLKAEDTAVYFCARDYYGTYFYAMDYWGQGTLVTVSS VL: EIVLTQSPATLSLSPGERATLSCTASSSVSSSYLHWYQQKPGLAPRLLIYSTSNLASGIPDRFSGSGSGTDYTLTISRLEPEDFAVYYCHQYHRSPLTFGQGTKLEIK
10 fold | PD1B878 Fab variant with light chain PD1L652 (S30P) (Fab, V domains shown, Soluble Fab of the non-combinatorial CDR scan) VH: QVQLVQSGSELKKPGASVKVSCKASGYTFTDYSMHWVRQAPGQGLEWMGWINIETGEPTYAQGFTGRFVFSLDTSVSTAYLQISSLKAEDTAVYFCARDYYGTYFYAMDYWGQGTLVTVSS VL: EIVLTQSPATLSLSPGERATLSCTASSSVPSSYLHWYQQKPGLAPRLLIYSTSNLASGIPDRFSGSGSGTDYTLTISRLEPEDFAVYYCHQYHRSPLTFGQGTKLEIK
10 fold | PD1B878 Fab variant with heavy chain PD1H586 (E57H) (Fab, V domains shown, Soluble Fab of the non-combinatorial CDR scan) VH: QVQLVQSGSELKKPGASVKVSCKASGYTFTDYSMHWVRQAPGQGLEWMGWINIETGHPTYAQGFTGRFVFSLDTSVSTAYLQISSLKAEDTAVYFCARDYYGTYFYAMDYWGQGTLVTVSS VL: EIVLTQSPATLSLSPGERATLSCTASSSVSSSYLHWYQQKPGLAPRLLIYSTSNLASGIPDRFSGSGSGTDYTLTISRLEPEDFAVYYCHQYHRSPLTFGQGTKLEIK
10 fold | PD1B878 Fab variant with light chain PD1L651 (V29F) (Fab, V domains shown, Soluble Fab of the non-combinatorial CDR scan) VH: QVQLVQSGSELKKPGASVKVSCKASGYTFTDYSMHWVRQAPGQGLEWMGWINIETGEPTYAQGFTGRFVFSLDTSVSTAYLQISSLKAEDTAVYFCARDYYGTYFYAMDYWGQGTLVTVSS VL: EIVLTQSPATLSLSPGERATLSCTASSSFSSSYLHWYQQKPGLAPRLLIYSTSNLASGIPDRFSGSGSGTDYTLTISRLEPEDFAVYYCHQYHRSPLTFGQGTKLEIK

The binders below were run against T2, cyno PD-1 (SPR analyte) (cynomolgus monkey) (assay: SPR, ProteOn XPR36, mAb captured by anti-human IgG Fc, cyno PD-1 as analyte, 25 C).
T2 construct: Construct of the soluble analyte is not described; also called cynomolgus PD-1
Experimental: Affinity measurements were performed using a ProteOn XPR36 system (BioRad). […] Approximately 5000 RU (response units) of mAbs were immobilized. The kinetic experiments were performed at 25° C. in running buffer (DPBS+0.01% P20+100 µg/mL BSA). To perform kinetic experiments, 200 RU of mAbs were captured followed by injections of analytes (human and cyno PD-1) at concentrations ranging from 1.563 nM to 400 nM (in a 4-fold serial dilution). The association phase was monitored for 3 minutes at 50 µL/min, then followed by 10 or 15 minutes of buffer flow (dissociation phase). The chip surface was regenerated with two 18 second pulses of 100 mM H₃PO₄ (Sigma, Cat#7961) at 100 µL/min.
The collected data were processed using ProteOn Manager software. First, the data was corrected for background using inter-spots. Then, double reference subtraction of the data was performed by using the buffer injection for analyte injections. The kinetic analysis of the data was performed using a Langmuir 1:1 binding model. The result for each mAb was reported in the format of ka (On-rate), kd (Off-rate) and KD (equilibrium dissociation constant).
Affinity of the antibodies to human and cyno PD-1 was measured using SPR as described in Example 1.

Kd | koff | kon | Binder
6.45 nM | 0.00129 s⁻¹ | 200000 M⁻¹ s⁻¹ | PD1B1085 (antibody, human IgG1, kappa, V domains shown, IgG1; also called PD1H585/PD1L469; E57Y (VH) variant of PD1B878) VH: QVQLVQSGSELKKPGASVKVSCKASGYTFTDYSMHWVRQAPGQGLEWMGWINIETGYPTYAQGFTGRFVFSLDTSVSTAYLQISSLKAEDTAVYFCARDYYGTYFYAMDYWGQGTLVTVSS VL: EIVLTQSPATLSLSPGERATLSCTASSSVSSSYLHWYQQKPGLAPRLLIYSTSNLASGIPDRFSGSGSGTDYTLTISRLEPEDFAVYYCHQYHRSPLTFGQGTKLEIKR
12 nM | 0.00162 s⁻¹ | 135000 M⁻¹ s⁻¹ | PD1B1094 (antibody, human IgG1, kappa, V domains shown, IgG1; also called PD1H586/PD1L652; E57H (VH), S30P (VL) variant of PD1B878) VH: QVQLVQSGSELKKPGASVKVSCKASGYTFTDYSMHWVRQAPGQGLEWMGWINIETGHPTYAQGFTGRFVFSLDTSVSTAYLQISSLKAEDTAVYFCARDYYGTYFYAMDYWGQGTLVTVSS VL: EIVLTQSPATLSLSPGERATLSCTASSSVPSSYLHWYQQKPGLAPRLLIYSTSNLASGIPDRFSGSGSGTDYTLTISRLEPEDFAVYYCHQYHRSPLTFGQGTKLEIKR
1.43 nM | 0.000185 s⁻¹ | 130000 M⁻¹ s⁻¹ | PD1B1090 (antibody, human IgG1, kappa, V domains shown, IgG1; also called PD1H585/PD1L651; E57Y (VH), V29F (VL) variant of PD1B878) VH: QVQLVQSGSELKKPGASVKVSCKASGYTFTDYSMHWVRQAPGQGLEWMGWINIETGYPTYAQGFTGRFVFSLDTSVSTAYLQISSLKAEDTAVYFCARDYYGTYFYAMDYWGQGTLVTVSS VL: EIVLTQSPATLSLSPGERATLSCTASSSFSSSYLHWYQQKPGLAPRLLIYSTSNLASGIPDRFSGSGSGTDYTLTISRLEPEDFAVYYCHQYHRSPLTFGQGTKLEIKR
9.32 nM | 0.000924 s⁻¹ | 99100 M⁻¹ s⁻¹ | PD1B1091 (antibody, human IgG1, kappa, V domains shown, IgG1; also called PD1H586/PD1L651; E57H (VH), V29F (VL) variant of PD1B878) VH: QVQLVQSGSELKKPGASVKVSCKASGYTFTDYSMHWVRQAPGQGLEWMGWINIETGHPTYAQGFTGRFVFSLDTSVSTAYLQISSLKAEDTAVYFCARDYYGTYFYAMDYWGQGTLVTVSS VL: EIVLTQSPATLSLSPGERATLSCTASSSFSSSYLHWYQQKPGLAPRLLIYSTSNLASGIPDRFSGSGSGTDYTLTISRLEPEDFAVYYCHQYHRSPLTFGQGTKLEIKR
11.6 nM | 0.00247 s⁻¹ | 212000 M⁻¹ s⁻¹ | PD1B1087 (antibody, human IgG1, kappa, V domains shown, IgG1; also called PD1H587/PD1L469; E57W (VH) variant of PD1B878) VH: QVQLVQSGSELKKPGASVKVSCKASGYTFTDYSMHWVRQAPGQGLEWMGWINIETGWPTYAQGFTGRFVFSLDTSVSTAYLQISSLKAEDTAVYFCARDYYGTYFYAMDYWGQGTLVTVSS VL: EIVLTQSPATLSLSPGERATLSCTASSSVSSSYLHWYQQKPGLAPRLLIYSTSNLASGIPDRFSGSGSGTDYTLTISRLEPEDFAVYYCHQYHRSPLTFGQGTKLEIKR
90 nM | 0.00839 s⁻¹ | 93200 M⁻¹ s⁻¹ | PD1B1089 (antibody, human IgG1, kappa, V domains shown, IgG1; also called PD1H405/PD1L652; S30P (VL) variant of PD1B878) VH: QVQLVQSGSELKKPGASVKVSCKASGYTFTDYSMHWVRQAPGQGLEWMGWINIETGEPTYAQGFTGRFVFSLDTSVSTAYLQISSLKAEDTAVYFCARDYYGTYFYAMDYWGQGTLVTVSS VL: EIVLTQSPATLSLSPGERATLSCTASSSVPSSYLHWYQQKPGLAPRLLIYSTSNLASGIPDRFSGSGSGTDYTLTISRLEPEDFAVYYCHQYHRSPLTFGQGTKLEIKR
72.4 nM | 0.00479 s⁻¹ | 66100 M⁻¹ s⁻¹ | PD1B1088 (antibody, human IgG1, kappa, V domains shown, IgG1; also called PD1H405/PD1L651; V29F (VL) variant of PD1B878) VH: QVQLVQSGSELKKPGASVKVSCKASGYTFTDYSMHWVRQAPGQGLEWMGWINIETGEPTYAQGFTGRFVFSLDTSVSTAYLQISSLKAEDTAVYFCARDYYGTYFYAMDYWGQGTLVTVSS VL: EIVLTQSPATLSLSPGERATLSCTASSSFSSSYLHWYQQKPGLAPRLLIYSTSNLASGIPDRFSGSGSGTDYTLTISRLEPEDFAVYYCHQYHRSPLTFGQGTKLEIKR
3.18 nM | 0.000411 s⁻¹ | 129000 M⁻¹ s⁻¹ | PD1B1092 (antibody, human IgG1, kappa, V domains shown, IgG1; also called PD1H587/PD1L651; E57W (VH), V29F (VL) variant of PD1B878) VH: QVQLVQSGSELKKPGASVKVSCKASGYTFTDYSMHWVRQAPGQGLEWMGWINIETGWPTYAQGFTGRFVFSLDTSVSTAYLQISSLKAEDTAVYFCARDYYGTYFYAMDYWGQGTLVTVSS VL: EIVLTQSPATLSLSPGERATLSCTASSSFSSSYLHWYQQKPGLAPRLLIYSTSNLASGIPDRFSGSGSGTDYTLTISRLEPEDFAVYYCHQYHRSPLTFGQGTKLEIKR
4.23 nM | 0.000781 s⁻¹ | 185000 M⁻¹ s⁻¹ | PD1B1095 (antibody, human IgG1, kappa, V domains shown, IgG1; also called PD1H587/PD1L652; E57W (VH), S30P (VL) variant of PD1B878) VH: QVQLVQSGSELKKPGASVKVSCKASGYTFTDYSMHWVRQAPGQGLEWMGWINIETGWPTYAQGFTGRFVFSLDTSVSTAYLQISSLKAEDTAVYFCARDYYGTYFYAMDYWGQGTLVTVSS VL: EIVLTQSPATLSLSPGERATLSCTASSSVPSSYLHWYQQKPGLAPRLLIYSTSNLASGIPDRFSGSGSGTDYTLTISRLEPEDFAVYYCHQYHRSPLTFGQGTKLEIKR
31.8 nM | 0.00544 s⁻¹ | 171000 M⁻¹ s⁻¹ | PD1B1086 (antibody, human IgG1, kappa, V domains shown, IgG1; also called PD1H586/PD1L469; E57H (VH) variant of PD1B878) VH: QVQLVQSGSELKKPGASVKVSCKASGYTFTDYSMHWVRQAPGQGLEWMGWINIETGHPTYAQGFTGRFVFSLDTSVSTAYLQISSLKAEDTAVYFCARDYYGTYFYAMDYWGQGTLVTVSS VL: EIVLTQSPATLSLSPGERATLSCTASSSVSSSYLHWYQQKPGLAPRLLIYSTSNLASGIPDRFSGSGSGTDYTLTISRLEPEDFAVYYCHQYHRSPLTFGQGTKLEIKR
2.18 nM | 0.000368 s⁻¹ | 169000 M⁻¹ s⁻¹ | PD1B1093 (antibody, human IgG1, kappa, V domains shown, IgG1; also called PD1H585/PD1L652; E57Y (VH), S30P (VL) variant of PD1B878) VH: QVQLVQSGSELKKPGASVKVSCKASGYTFTDYSMHWVRQAPGQGLEWMGWINIETGYPTYAQGFTGRFVFSLDTSVSTAYLQISSLKAEDTAVYFCARDYYGTYFYAMDYWGQGTLVTVSS VL: EIVLTQSPATLSLSPGERATLSCTASSSVPSSYLHWYQQKPGLAPRLLIYSTSNLASGIPDRFSGSGSGTDYTLTISRLEPEDFAVYYCHQYHRSPLTFGQGTKLEIKR
